Reference: CN116178551A (BEIJING DONGFANG BIOTECH CO LTD, dated 2023)

B1: 噬菌体单克隆抗体MA-1 (phage-displayed single-chain antibody MA-1) (scFv)
chain: EVKLEESGGGLVKPGGSLKLSCAASGFAFSDYDMSWVRQTPEKRLEWVATISSGGSYTYYPDSVKGRFTISRDNARNTLYLQMSSLRSEDTALYYCTSPRQVGLRKAFDYWGQGTTLTVSSDIVVTQSPALMSASPGEKVTMTCSASSSVSYMYWYQQKPRSSPKSWIYLTSNLASGVPARFSGSGSGTSYSLTISSMEAEDAATYYCQQWSSNPFTFGSGTKLEIKRAD
B2: MA-1鼠源抗体 (murine full antibody MA-1, mouse IgG2a / mouse Ck) (antibody, V domains shown)
VH: EVKLEESGGGLVKPGGSLKLSCAASGFAFSDYDMSWVRQTPEKRLEWVATISSGGSYTYYPDSVKGRFTISRDNARNTLYLQMSSLRSEDTALYYCTSPRQVGLRKAFDYWGQGTTLTVSS
VL: DIVVTQSPALMSASPGEKVTMTCSASSSVSYMYWYQQKPRSSPKSWIYLTSNLASGVPARFSGSGSGTSYSLTISSMEAEDAATYYCQQWSSNPFTFGSGTKLEIKR
notes: also called 抗NKG2A单克隆抗体MA-1; 鼠源全抗分子

How the values were obtained:
huFc-NKG2A/CD94 = target: T1, huFc-NKG2A/CD94 (UniProt P26715 94-233; Q13241 32-179, limits assumed); assay: phage supernatant ELISA, huFc-NKG2A/CD94 against huFc-NKG2C/CD94 and huFc-NKG2E/CD94 (selection criterion met by MA-1)
T1 construct: The construct is named only, and its architecture is not described; The Fc is placed N-terminal following the printed name; not shown: human Fc (huFc)
T1 sequence (P26715 94-233 limits assumed, chain 1 of 2): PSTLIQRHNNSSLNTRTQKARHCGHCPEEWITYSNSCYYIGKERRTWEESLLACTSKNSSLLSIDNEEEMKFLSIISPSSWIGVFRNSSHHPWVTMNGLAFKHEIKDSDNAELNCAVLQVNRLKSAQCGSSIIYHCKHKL
T1 sequence (Q13241 32-179 limits assumed, chain 2 of 2): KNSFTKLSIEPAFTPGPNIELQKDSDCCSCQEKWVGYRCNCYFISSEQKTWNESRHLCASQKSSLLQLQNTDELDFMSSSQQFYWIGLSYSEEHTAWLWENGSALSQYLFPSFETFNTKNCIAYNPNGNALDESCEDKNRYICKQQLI

huFc-NKG2C/CD94 = target: T2, huFc-NKG2C/CD94 (UniProt P26717 94-231; Q13241 32-179, limits assumed); assay: ELISA, serial dilution of MA-1 on huFc-NKG2C/CD94, anti-mouse Ig-HRP
T2 construct: The construct is named only, and its architecture is not described; not shown: human Fc (huFc)
T2 sequence (P26717 94-231 limits assumed, chain 1 of 2): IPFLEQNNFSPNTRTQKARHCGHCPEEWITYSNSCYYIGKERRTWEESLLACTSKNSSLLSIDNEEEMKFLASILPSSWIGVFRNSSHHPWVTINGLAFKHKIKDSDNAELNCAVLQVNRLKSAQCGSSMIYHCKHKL
T2 sequence (Q13241 32-179 limits assumed, chain 2 of 2): as the sequence (Q13241 32-179 limits assumed, chain 2 of 2) above

huFc-NKG2E/CD94 = target: T3, huFc-NKG2E/CD94 (UniProt Q07444 94-240; Q13241 32-179, limits assumed); assay: ELISA, serial dilution of MA-1 on huFc-NKG2E/CD94, anti-mouse Ig-HRP
T3 construct: The construct is named only, and its architecture is not described; not shown: human Fc (huFc)
T3 sequence (Q07444 94-240 limits assumed, chain 1 of 2): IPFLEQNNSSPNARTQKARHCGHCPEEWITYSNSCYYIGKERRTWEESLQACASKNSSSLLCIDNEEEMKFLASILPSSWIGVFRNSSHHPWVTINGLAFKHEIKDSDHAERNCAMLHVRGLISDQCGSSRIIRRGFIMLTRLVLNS
T3 sequence (Q13241 32-179 limits assumed, chain 2 of 2): as the sequence (Q13241 32-179 limits assumed, chain 2 of 2) above

Binder | OD450nm读值 with NKG2A relative to NKG2C/E (huFc-NKG2A/CD94) [fold] | binding result (huFc-NKG2C/CD94) | binding result (huFc-NKG2E/CD94)
B1 | > 3 | – | –
B2 | – | no binding | no binding
